Measured values reported in patent publication US20230190812A1 (published 2023).

Molecular target: T1, MAGE-A4 (MA4-230) peptide on HLA-A*02:01 (human)
T1 peptide: GVYDGREHTV
Assay: multimer staining

binding result: recognises
B1: MA4-230 H1 TCR (TCR, V domains shown)
Valpha: LAKTTQPISMDSYEGQEVNITCSHNNIATNDYITWYQQFPSQGPRFIIQGYKTKVTNEVASLFIPADRKSSTLSLPRVSLSDTAVYYCLVVEGNRDDKIIFGKGTRLHILP
Vbeta: NAGVTQTPKFRVLKTGQSMTLLCAQDMNHEYMYWYRQDPGMGLRLIHYSVGEGTTAKGEVPDGYNVSRLKKQNFLLGLESAAPSQTSVYFCASPPTPSSYNEQFFGPGTRLTVL
